Data as given in the supplement of paper PMC10724198.
± gives the standard deviation of the averaged measurements.

Test system: Saccharomyces cerevisiae
Test: protein stability index of tFT-peptide fusion (C-terminal peptide) (PSI (0-1 scale)); higher = more stable (slower turnover)
Conditions: genetic background: wild type; temperature: 30 C
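Further: PSI is a weighted mean of sequencing reads over stability bins, variants kept only with over 10 reads, mCherry proximal and sfGFP distal, peptide attached via GGGS linker.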

Sequence HDPPPPPPLPRP has a protein stability index of 0.626 ± 0.024.
Sequence PRGYCGLGRPAR has a protein stability index of 0.6305 ± 0.0013.
For VCSVVGGGYSWG, the protein stability index was 0.686 ± 0.12.
Work on KKKEKTSEEKKK yielded a protein stability index of 0.701 ± 0.029.
PNPPYFPSPGRS was tested, and the protein stability index was 0.74 ± 0.044.
In the case of AARQRWSLEFLD, the protein stability index is reported as 0.65 ± 0.1.
PLALLPPPPHPP was tested, and the protein stability index was 0.597 ± 0.07.
VAVSLFVPVLFL showed a protein stability index of 0.567 ± 0.061.
Work on FGGGGRGGLLWC yielded a protein stability index of 0.764 ± 0.06.
PPTPPPPSGLPP was tested, and the protein stability index was 0.678 ± 0.05.
MEAAGVGRVVWR showed a protein stability index of 0.632 ± 0.056.
In the case of LAWYPGYCYCCL, the protein stability index is reported as 0.598 ± 0.0089.
Sequence SWPDVCLTSPLS has a protein stability index of 0.731 ± 0.042.
Work on QLGRVSRLVGVC yielded a protein stability index of 0.537 ± 0.0081.
ALVQAAPPGRTP gave a protein stability index of 0.6864 ± 0.0049.
SPPPPPFCPLPA gave a protein stability index of 0.646 ± 0.014.
For TVFPPLPTLPCV, the protein stability index was 0.792 ± 0.1.
CLGPGVLVGCVC gave a protein stability index of 0.402 ± 0.16.
With FSASLPLSPSPA the protein stability index was 0.6784 ± 0.002.
Work on QFRCAIFRLSFV yielded a protein stability index of 0.613 ± 0.023.
With RGDGVRGGKNGR the protein stability index was 0.689 ± 0.034.
Sequence WGGGGWRGGGAR has a protein stability index of 0.747 ± 0.033.
PPLPLTSPPPSP gave a protein stability index of 0.631 ± 0.024.
Work on SVRVRKGRYDNK yielded a protein stability index of 0.707 ± 0.018.
Work on PQVSYYLLPPSS yielded a protein stability index of 0.711 ± 0.11.
Work on PAHSYPILASGH yielded a protein stability index of 0.675 ± 0.034.
SRVEVEVKIGFQ gave a protein stability index of 0.6331 ± 0.0061.
For SILLPLPRLLPC, the protein stability index was 0.606 ± 0.018.
Sequence FSSLLLMEVFLP has a protein stability index of 0.686 ± 0.011.
Sequence HSTGPRPKLGCQ has a protein stability index of 0.827 ± 0.019.
With CQRDYLFKSRLP the protein stability index was 0.639 ± 0.069.
For PPRHTPTNPPKA, the protein stability index was 0.677 ± 0.05.
Sequence PRPPSPRAPPPH has a protein stability index of 0.631 ± 0.067.
For ATIYTAATTYHV, the protein stability index was 0.71342 ± 0.00066.
For TVAPNFIPTSTS, the protein stability index was 0.662 ± 0.044.
For VHKMAARGATRL, the protein stability index was 0.647 ± 0.036.
VQSLCGDCGCCL showed a protein stability index of 0.735 ± 0.04.
GLSALVVCPSWG showed a protein stability index of 0.65062 ± 0.00034.
In the case of RRRSGAPVMRGS, the protein stability index is reported as 0.645 ± 0.074.
SPLSDPPPYRPP gave a protein stability index of 0.591 ± 0.028.
With PISPPSFRSPTP the protein stability index was 0.691 ± 0.029.
VFCTFVGPRSDV gave a protein stability index of 0.775 ± 0.13.
Sequence WSRSGGWEKYGV has a protein stability index of 0.681 ± 0.024.
Work on LIYKRQPAFRCG yielded a protein stability index of 0.632 ± 0.023.
With PDTRLGIIITNM the protein stability index was 0.701 ± 0.083.
Work on RITSSLCPPLLR yielded a protein stability index of 0.695 ± 0.013.
For TTNGGPGNGAQN, the protein stability index was 0.66543 ± 0.00044.
Sequence QFFVVLVSHEGR has a protein stability index of 0.63 ± 0.011.
Sequence ETSERIEDKDGI has a protein stability index of 0.698 ± 0.051.
Sequence SPPPMPLPLIPL has a protein stability index of 0.663 ± 0.066.
Work on MLHLNPVLHISG yielded a protein stability index of 0.653 ± 0.041.
SFWWCSARSFQG gave a protein stability index of 0.715 ± 0.03.
With ICIGRDISNQSC the protein stability index was 0.703 ± 0.021.
YTPSGHKRRMYV was tested, and the protein stability index was 0.642 ± 0.064.
GGAGGNLAPGRG showed a protein stability index of 0.638 ± 0.026.
Work on RAGVFLPSGVAI yielded a protein stability index of 0.663 ± 0.011.
SESKCRPKVSQP gave a protein stability index of 0.689 ± 0.065.
CRLPLSTIRARP gave a protein stability index of 0.724 ± 0.047.
WDGGPTRSGGTG gave a protein stability index of 0.711 ± 0.013.
GSLASRGVFVVV showed a protein stability index of 0.614 ± 0.042.
RRAESRNEKQHS was tested, and the protein stability index was 0.687 ± 0.017.
Sequence PPPPPPVHPSSP has a protein stability index of 0.728 ± 0.0081.
With NKVRDKTQLKIE the protein stability index was 0.78 ± 0.094.
IENKKEKKIMIE showed a protein stability index of 0.6652 ± 0.0037.
In the case of MKNKSTEKNRKF, the protein stability index is reported as 0.72815 ± 0.00016.
Work on AGIDYLSVGGSL yielded a protein stability index of 0.728 ± 0.074.
Work on IAGKAIKNMTRR yielded a protein stability index of 0.676 ± 0.052.
In the case of GRRRGWAWGVWG, the protein stability index is reported as 0.683 ± 0.0084.
With KAGKFLVGKSLS the protein stability index was 0.657 ± 0.026.
In the case of HVTRGMTHLTLF, the protein stability index is reported as 0.635 ± 0.036.
For RASLTPSDHLFF, the protein stability index was 0.766 ± 0.02.
GQLGGRGNRRVA gave a protein stability index of 0.718 ± 0.041.
With VPFVGLGLKVRV the protein stability index was 0.6236 ± 0.0057.
For GVGLGRVWVKLG, the protein stability index was 0.708 ± 0.06.
Sequence KKNKQEKPKKPK has a protein stability index of 0.698 ± 0.0062.
Sequence RSSKCRGQKGLG has a protein stability index of 0.687 ± 0.014.
With LRCPLMYDIFYN the protein stability index was 0.726 ± 0.074.
For CLLSWVLDCFLV, the protein stability index was 0.548 ± 0.024.
Sequence KEIRNNEKKKKK has a protein stability index of 0.657 ± 0.013.
In the case of SGCVGGSDVALS, the protein stability index is reported as 0.721 ± 0.018.
In the case of TSYNLPAAPHPV, the protein stability index is reported as 0.679 ± 0.037.
PRPPPSQATLSP was tested, and the protein stability index was 0.637 ± 0.052.
PPFLYVLVSSIL was tested, and the protein stability index was 0.54 ± 0.15.
For VSFNPAGYKSRN, the protein stability index was 0.671 ± 0.042.
Work on RMRTGTKCLSAG yielded a protein stability index of 0.705 ± 0.17.
For RGWKDQYIDADR, the protein stability index was 0.689 ± 0.012.
With FCLAPMLLPGSF the protein stability index was 0.6785 ± 0.0064.
Work on FRFLFSPSRPPF yielded a protein stability index of 0.633 ± 0.05.
For ELWGGGFLLMLG, the protein stability index was 0.599 ± 0.021.
RGRWVDWLSFTF was tested, and the protein stability index was 0.7278 ± 0.0022.
TKDRIIMKKKKE showed a protein stability index of 0.7214 ± 0.0031.
YENFHTRFAVGV showed a protein stability index of 0.504 ± 0.037.
KRKKNKEENQTE was tested, and the protein stability index was 0.708 ± 0.016.
Work on MGGRDNLVQKEW yielded a protein stability index of 0.804 ± 0.091.
FPPFPPLVPSPP showed a protein stability index of 0.742 ± 0.0049.
Work on LPAPSPSPHPPA yielded a protein stability index of 0.689 ± 0.026.
Sequence SPPRPPRPPRRA has a protein stability index of 0.599 ± 0.02.
With RGSVSCLQLIGC the protein stability index was 0.651 ± 0.034.
In the case of HLTCVVGRDLGI, the protein stability index is reported as 0.606 ± 0.015.
In the case of PLSPSCTLPPRP, the protein stability index is reported as 0.674 ± 0.034.
In the case of VEFWGAVCNDCL, the protein stability index is reported as 0.706 ± 0.043.
In the case of PWTSSTTSRFPS, the protein stability index is reported as 0.727 ± 0.033.
SFSPLHVGPSPL showed a protein stability index of 0.6843 ± 0.0048.
With KELQKKRIKKKN the protein stability index was 0.733 ± 0.078.
For GREGELDKKKWH, the protein stability index was 0.723 ± 0.051.
QGSAGRHVRTNL gave a protein stability index of 0.701 ± 0.06.
In the case of PPPRHVPLPPLT, the protein stability index is reported as 0.71 ± 0.11.
In the case of PSFPLLPPPSLS, the protein stability index is reported as 0.6913 ± 0.0051.
In the case of DNQQRQKKKNKK, the protein stability index is reported as 0.65 ± 0.013.
With GERRREKRKNSG the protein stability index was 0.726 ± 0.046.
Sequence PCTGSKRRSLKS has a protein stability index of 0.717 ± 0.055.
For REQKTKDKKKRQ, the protein stability index was 0.703 ± 0.024.
In the case of KKNKKKKEKKAK, the protein stability index is reported as 0.625 ± 0.025.
In the case of GGGGGCVGRLWG, the protein stability index is reported as 0.742 ± 0.026.
Work on AWGPGRGGGGDA yielded a protein stability index of 0.677 ± 0.01.
With SHGLLTLRLALA the protein stability index was 0.586 ± 0.017.
With FMYSGIVAIPRG the protein stability index was 0.661 ± 0.025.
PALPPPSLPPPP gave a protein stability index of 0.6718 ± 0.0023.
For GVGSTGAKTVRG, the protein stability index was 0.693 ± 0.018.
YVKSIRRRDYIW showed a protein stability index of 0.694 ± 0.0046.
Sequence AVPPQLAPPRPL has a protein stability index of 0.679 ± 0.037.
LVLDVLDLRRHC gave a protein stability index of 0.649 ± 0.012.
With LLRLVFHLETSS the protein stability index was 0.547 ± 0.081.
GKKPNSGKNKKK showed a protein stability index of 0.694 ± 0.049.
With EMYLKTPVDRKL the protein stability index was 0.678 ± 0.038.
In the case of GTRPSPPSRLVS, the protein stability index is reported as 0.677 ± 0.031.
KTALWQPNCKTD gave a protein stability index of 0.655 ± 0.011.
RQSITIAQPGRP showed a protein stability index of 0.643 ± 0.014.
In the case of DGHSMFNRLIRS, the protein stability index is reported as 0.64232 ± 0.00017.
Work on PGAGKRLIERVK yielded a protein stability index of 0.593 ± 0.062.
Sequence LVSGFRYPFSCL has a protein stability index of 0.611 ± 0.037.
TFAALRVFSFLS gave a protein stability index of 0.666 ± 0.052.
For VLHAGACARANR, the protein stability index was 0.708 ± 0.043.
LSTAWFYFSLLF was tested, and the protein stability index was 0.635 ± 0.072.
PLPLPPPFPPLS was tested, and the protein stability index was 0.59 ± 0.043.
AGVVARTRRDGG gave a protein stability index of 0.708 ± 0.035.
Work on GFPGSYSKVLCL yielded a protein stability index of 0.6619 ± 0.0032.
Work on AICSVRSGITLS yielded a protein stability index of 0.6529 ± 0.0019.
In the case of LETIFEDFGKYR, the protein stability index is reported as 0.794 ± 0.092.
APLTVLTARSLF gave a protein stability index of 0.763 ± 0.055.
LPPPRPASPGSP gave a protein stability index of 0.642 ± 0.051.
In the case of PHPPPSSRLLSR, the protein stability index is reported as 0.751 ± 0.058.
QDSETYSNEAGL was tested, and the protein stability index was 0.669 ± 0.031.
PVPPPPPPPPPL gave a protein stability index of 0.667 ± 0.0059.
Work on RWREGWGGFSLG yielded a protein stability index of 0.665 ± 0.025.
Sequence LGDGAVVAEESG has a protein stability index of 0.642 ± 0.062.
